For the test, the target named is human eIF4E (human, UniProt P06730 1-217). The test can be described thus: ELISA. For orientation: ELISA stands for enzyme-linked immunosorbent assay.
Chain of human eIF4E (P06730 whole entry): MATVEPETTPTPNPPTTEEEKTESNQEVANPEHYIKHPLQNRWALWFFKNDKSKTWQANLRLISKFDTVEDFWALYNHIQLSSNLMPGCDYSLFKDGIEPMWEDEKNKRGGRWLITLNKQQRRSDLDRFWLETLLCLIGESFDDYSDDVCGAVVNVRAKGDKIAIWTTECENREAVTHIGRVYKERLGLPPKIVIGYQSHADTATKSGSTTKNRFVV

As to RKKGKGKGTTVGMGKSSRRFINMYGF [GST-VPg5 fusion protein], the binding result is “binds”.

The values are drawn from article doi:10.1101/298455 (bioRxiv, 2018).
